Source: the supplement of paper PMC9170038

Tested on: K4 kissing-loop RNA reporter
Test: apparent KD of K4 kissing-loop reporter; higher = weaker reporter binding
Conditions: Eterna round: R107
Method: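 RNA-MaP round R107: designed RNA switches with theophylline, tryptophan, arginine or FMN aptamers are transcribed on-chip within common flanks. They are titrated with a labelled K4 kissing-loop RNA reporter in RNA-MaP buffer (100 mM Tris pH 7.5, 80 mM KCl, 4 mM MgCl2), without ligand or with the indicated ligand. Median apparent KD per design.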

[1] = input ligand: theophylline 20 uM
[2] = input ligand: tryptophan 2.4 mM
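Also: bound reporter read as fluorescence of individual clusters on recovered sequencing chips by microscopy, with normalized cluster intensities fitted with a binding model.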

Sequence	apparent KD of K4 kissing-loop reporter (input ligand: FMN 200 uM) [nM]	apparent KD of K4 kissing-loop reporter (input ligand: arginine 13.2 mM) [nM]	apparent KD of K4 kissing-loop reporter (input ligand: none) [nM]	apparent KD of K4 kissing-loop reporter [1] [nM]	apparent KD of K4 kissing-loop reporter [2] [nM]
UAUGCUUGUGCUGAUACCAGUGUUAGUGAUGUUAGGACUGUCAGUAGGAUGCGUGCAUUUCACCCUUGGCAGCAGUAUCGCAGCA [theeternabot_exclusion_KL_Theo_B_48]	447	295	351	426	387
CGCCGUAAGGCGAGCGCUCCCACUCCGGAAGGAGCGCCCGAAAGGGCAGGUAGGUCGCCGGAGUGAUGUUCCGGUGGAGGGCUCG [#2 Exclusion - Arginine A Attempt #28 (Inspired by Omei)]	353	261	380	267	330
GCGCGUCAUGUCAGCGGUGACACUGUCGAUACCAGCGCCGGAAGGCGCCCUUGGCAGCGACGUGCUGGAGUGAUGUUCCAGCGUC [#2 Exclusion - Theophylline A Attempt #21 (HarryS)]	177	107	140	130	134
AAGUCAUAGGCAGGAUAUGCAUAGUAAUAAGGCCAUAUAUACGUAUAGAGUGAUGUUUUGUACCAGGCAGAAGGGCUACAUCAGU [FMN B Excl V7 (+3A)]	550	506	594	643	470
GCGCGUCAUGUCAGCGGUGACUAUGUCGAUACCAGCAGGGAAACCUGCCCUUGGCAGCGACGCGCUGGAGUGAUGUUCCGACGGC [#2 Exclusion - Theophylline A Attempt #8 (HarryS)]	165	153	154	173	145
UACUUAUAGUUAUUUCUAAAUUUAUUUAGUCAGGAUAUCGAAUAGUCGAGAAGGGACAUAAUCAAGUGAUGUUUGAUUAUUCAAA [JR_SSFMNA_Sub023]	64.8	96.1	84.8	88.8	69.6
GCCGUAGAUGGAAGGAGCGUGGUUAAUGUAAGUGAUGUUUACGAGGUCAACAAUUGACCGCCACAGGUAGGUCGCCAUCUACGGC	60.4	57.4	57.2	53.1	56.4
AUUUAGACGAGUGAUGUUCGUGUUUUUUCAGAGGAUAUGCGUAAUUGCAGAAGGCUGUAUUUAUAUAUGUUUUGUUUUUUUAAAA [JR_ExcFMNA_Sub008]	80.4	92.1	75.4	93.6	69.3
UGAUAGGACAGAAGGAGCGGGAGUGAUGUUCCCAAAAGGGUAAGGUGUCAAAAGACACCCUUCCAGGUAGGUCGCUGUCCUAUCU	97.7	105	97.5	102	83.9
CUGACGUGCGGUAGGUUCAAGUGCUGGGAAGGAGCGCAGAUGACUGCAGGUAGGUCGCCCAGUGAUGUUGGGCUUUCCACCUACG [Quinbe]	186	180	193	214	186
AAAUUUGCUCAUGAUACCAGCCAGUGAUGUUGGUUGGUCCACCGUGUCCGAACAUUAAGCGGCCCUUGGCAGCAUGAUGCGCGUA [Ininveaen]	129	105	116	143	112
CGCAGUGAUGUUGUGAUUAACUACAGGGAAGGAGCGUGCUAGAGCACAGGUAGGUCGCCCAGUGGCCGAGUGAUGUUCGGCGGGU [Same State Arginine A GF 27]	237	189	227	250	188
GGGCGCGGCGCGGCCGCCACUGCGCCUGGGUGCUCGCCGAGUGAUGUUCGUCGGCGGUUGGGUGGCAGGACCGGGUGCCGGCCCG [BDazzled - #17 SS Tryptophan B]	1580	533	3280	2140	457
UUUCCAGAUAAGUGGGAACACUCCAUAACAGAGGAUAUCAGAGCGCUGAGAAGGCUGUUUAUCAGUGAUGUUGAUAGUGUGGAGU [FMN A SS t2a]	171	660	671	786	630
GGAUAGGACGGAGGAUAUGGGCUAGGCAAGAAUAACUUGUCUAGCAAAUCCAUGAGGAGUGAUGUUCCAGAAGGUUGUCCUAUCG [FmnBX 1 G10+U75]	167	94.7	85.2	106	75.4
UUGUAUAGUGGAAGGAGCGCGUGGGCGCAGUGAUGUUGCGCCCGACAUCACUUCAACUUAACGCAGGUAGGUCGCCAUUGUAAUG [Arginine B (Excl) V5]	131	88	113	104	101
ACACUUUACGUAGGAUAUGCGACGAGUGAUGUUCGUCAGGCGGCUUGAGCUUAAACAGGCCGUCUAGCAGAAGGACGGGCAGUGU [Diorsodi]	147	143	192	194	168
GGAGUUACCUGGGAUACCAGUCGGAGACCCAGAGCUCGGAGUGAUGUUCUGGGAUGUUUCGGCCCUUGGCAGCUCUGGGUCUCCC [#2 Exclusion - Theophylline B Attempt #8 (HarryS)]	909	615	723	936	675
UUAUCUAUAUUCGAUACCAGUACCCUUUGUGUUAAUCCUUUUAUCAGUGAUGUUGAUGUGUACCCUUGGCAGCGGGUAUGGGUUU [KL-XTheo-B15]	420	388	437	640	349
CCGCUACCCUCAGGAUAUUAAUAUGGAGUGAUGUUCUAUGUCCGAUGGCGGAAACGCCAUCGGGAAUAAGAAGGGAGGGUAGCGG	189	261	482	313	329
UAUUAAUUGUCAGGAUAUCGUAAACGAGUGAUGUUCGUAUAUCGACGAUAGUCGAUUCUAUCUAAACGAGAAGGGACAUUAUUUA [JR_SSFMNB_Sub008]	346	454	664	516	420
GUAUAUCGAGUGAUGUUCGAAUGCUCCGAAGGAGCGCGGAUAAUCGCAGGUAGGUCGCGGAGCAGUUGCUGAGGAAGCUCAGUAU [Arg A SS t11]	162	401	211	211	147

Sequence	apparent KD of K4 kissing-loop reporter (input ligand: FMN 200 uM) [nM]	apparent KD of K4 kissing-loop reporter (input ligand: arginine 13.2 mM) [nM]	apparent KD of K4 kissing-loop reporter (input ligand: none) [nM]	apparent KD of K4 kissing-loop reporter [1] [nM]	apparent KD of K4 kissing-loop reporter [2] [nM]
CAAGCUCUCCAAGGAUAUGAUAUCGACCCGUCUUAGUGAUGUUAAGGCUGUAGAAAUUCACAUUGAUCAGAAGGUGGUACCCUCC [theeternabot_sameState_KL_FMN_B_8]	317	194	256	351	239
AUUUAGACGAGUGAUGUUCGUGAUUUUUCAGAGGAUAUGCGUAAUAGCAGAAGGCUGUAUUUAUAUAUAUUUUGAUUUUUUUAAA [JR_ExcFMNA_Sub009]	69.6	81.6	59.5	82.8	62.3
GUAUCGCUAGGAGGAUAUUUCAAUUCGUCAAUAAAUGGUGAUACGGAGUGAUGUUCCGAUUUACGGAAAGAAGGCCUAGUGAUAC [FMN B 7]	173	265	298	287	285
CUUCGAUUAACAGAUACCAGUCACUUGGGAGCCACACACAAGUGAGUGAUGUUCACUUGUGACCCUUGGCAGCUGUUAGUCGAAG [#04 K4 Theophylline B Exclusion]	102	86.5	97.2	127	103
CUUGUACAUGCCGAGGUAGGUGCGGGUUAGCGAGGACCGGUACGGCCGCCACUCGCCAAGUGAUGUUUGGUCCUUUGGAUCGGCA	1220	453	366	690	183
UGUUACCAGUGAUGUUGGGAGAUGAAGAGCAAGGAUAUGUGAUAGUACAGAAGGUGCGUCGUCGUGAUUAUCACGCUCUGUGUUA [theeternabot_exclusion_KL_FMN_A_8]	266	98.3	141	138	111
AUAGCUGAUAGCAGUGAUGUUGCUUCAGAUACCAGACGAGAUCAUGUCCCUUGGCAGCUGACAUGGCAAGUGCUAGGUUAGAUGA [#11 K4 Theophylline A Exclusion]	140	114	125	120	130
CGGAGUGAUGUUCCUUUUAUUAAUUAUUAACGAGGACCGGUACGGCCGCCACUCGAUUUAGCUUUUAUUUAAUGCUUGGAUGUUU [JR_SSTryptoA_Sub003]	132	224	157	246	77
GCUAUGGUAGGAAGGAGCGCUUGCUCGGUCAUAUGAGUGAUGUUCGAGACCGAGCAUUUAUAGCAGGUAGGUCGCCUACUAUAGC [Arginine B K4 8]	253	223	192	200	198
UGAUAGGACAGAAGGAGCGGUAGUGAUGUUACCAAAAGGUUAAGGUGUCAAAAGACACCCUACCAGGUAGGUCGCUGUCCUAUCU	152	164	161	126	136
AAGCAGUCACUCGAACCCAUCGAAGAUGGGCGAGGACCGGUACGGCCGCCACUCGGAGUGAUGUUCCGCAGACUGCAAAAUAAAA	679	265	339	249	164
UUGAGCCGGACGGAAGUCCGGCUCUGCGAGCGAGGACCGGUACGGCCGCCACUCGGUGCAGUGAUGUUGCAUGGCCGCAAGGCCG [#2 Exclusion - Tryptophan A Attempt #4 (HarryS)]	270	232	301	208	324
AAAUAAAAGGCGGCCGCCACUGAACGCCUCCGCGUGGGUAUAUAGUGAUGUUAUAUGGCCGCCUUCAGGACCGGGCCAAAUAAAA [AstrosSSTryB#1]	458	220	339	274	373
GCCGUAGAUUGAAGGAGCGGUAUGGGCGUUGGCUGAGUGAUGUUCAGGGAAAGUGGCUUCUACCAGGUAGGUCGCAAUCUACGGC	164	129	157	170	137
CCGAAGAACCAGUGAUGUUGGUUGACUAGACAGGAUAUGAGCAACAUCAGAAGGGUCUGGCUUCGGGAGUGGGUUGCGCUGACCU [Onbizaes]	283	259	616	296	576
AUUUAAUUAACUGAUACCAGACUUUAAGUAAUUAUUAAAACUAGUGAUGUUAGUUUAUCUGUCCCUUGGCAGCAGUUUCUACUUA [JR_Nu_ExcTheophyB_Sub020]	144	136	158	135	127
CUUGAUGUAGCGGCCGCCACUCUAGAUCCGCAUCGGAUGAGGUACUUGAAGUGAUGUUUUGAGGUGAGGACCGGGCUCUAAAGAA [theeternabot_sameState_KL_Trp_B_16]	750	455	564	452	420
UGUACCGAGUCAGGAUAUCAUAAUAAAUCCAGUGAUGUUGGAAUAACCAGUACAAAGUACUGGCCUUGAGAAGGGACUUGGUACU [FmnBS 3 #SwitchBubble #StaticStem]	167	146	163	147	147
GAUUUAGAGGCGGCCGCCACUAGUGAUGUUAGUGAUGUUUGAUACUGAAUAUAUCUGCGUUUAGAUAGGACCGGGCCAGAUGGUG [ddcmullin]	261	159	193	215	197
AGAGUUAUGAGAGGAUAUGCGGCUAGUACUCAAAGAGUACUAGCAGCAGAGUGAUGUUCUGUGAAAGCAGAAGGUUCAUAACUCA [#06 K4 FMN B Same State]	124	668	627	563	641
AGUGAUAUAUGAGGAUAUGGGAUUGUUAAUGAGUUAGUUUUAGUGUUGUUUGGUUAGUGAUGUUAUUUAGAAGGCGUGAGUGAUG [kuktrmullin]	93.6	87.4	96	116	70.4
